From patent US20190336589A1 (published 2019)

Assays:
[1] = target: Hen egg lysozyme (HEL) peptide on I-A^k (mouse); experiment: binding, other
Target sequence in this assay (peptide, as listed by the source): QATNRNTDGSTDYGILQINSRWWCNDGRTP

[2] = target: T1, Hen egg lysozyme (HEL) peptide on I-A^k (mouse); experiment: binding, other
T1 peptide: DGSTDYGILQINSR

[3] = target: T2, PLP (myelin proteolipid protein) peptide on I-A^s (mouse, 3rd amino acid from the N terminus substituted from cysteine to serine; contains the serine-substituted epitope of SEQ ID NO: 20); experiment: activation reporter or marker
T2 peptide: RVSHSLGKWLGHPDKF
Description: The cultured cells were collected, and the 2E5 reporter T cells were stained with an APC-labeled anti-CD45 antibody (clone name: 30-F11, eBioscience). Then, the stained 2E5 reporter cells were analyzed by flow cytometry so as to determine the proportion of the GFP-positive cells in the CD45-positive cells. As Control 1, the proportion of the GFP-positive cells in the CD45-positive cells was analyzed in the same manner, except that the above-described medium was added instead of the IgG antibody.

B1: 3A9 TCR (TCR, V domains shown)
Valpha: AQSVTQPDARVTVSEGASLQLRCKYSYSGTPYLFWYVQYPRQGLQLLLKYYSGDPVVQGVNGFEAEFSKSNSSFHLRKASVHWSDSAVYFCALNSGGSNAKLAFGKGSKLSVKS
Vbeta: AVTQSPRNKVAVTGGKVTLSCNQTNNHNNMYWYRQDTGHGLRLIHYSYGAGSTEKGDIPDGYKASRPSQENFSLILELATPSQTSVYFCASGDESALPELYFGEGSKLTVL
binding result [1]: recognises | binding result [2]: recognises

B2: 2E5 TCR (TCR, V domains shown)
Valpha: GEKVEQHQSTLSVREGDSAVINCTYTDTASSYFPWYKQEAGKSLHFVIDIRSNVDRKQSQRLTVLLDKKAKRFSLHITATQPEDSAIYFCAASPGANTGKLTFGHGTILRVHP
Vbeta: VAGVTQTPRYLVKEEGQKAHMSCSPEKGHTAFYWYQQNQKQELTFLINFRNEEIMEQTDLVKKRFSAKCSSNSQCILEILSSEEDDSALYLCASSLVRGNSDYTFGSGTRLLVI
binding result [3]: recognises
